This is an account of results in patent US20060257955.

The data set has as its target T1, labeled peptide ecot2 (T2), Dabcyl-KVSRRRRRGGD-Edans (not fully specified).
T1 chain: KVSRRRRRGGD

B1: E. coli outer membrane protease OmpT (protein)
chain: STETLSFTPDNINADISLGTLSGKTKERVYLAEEGGRKVSQLDWKFNNAAIIKGAINWDLMPQISIGAAGWTTLGSRGGNMVDQDWMDSSNPGTWTDESRHPDTQLNYANEFDLNIKGWLLNEPNYRLGLMAGYQESRYSFTARGGSYIYSSEEGFRDDIGSFPNGERAIGYKQRFKMPYIGLTGSYRYEDFELGGTFKYSGWVESSDNDEHYDPGKRITYRSKVKDQNYYSVAVNAGYYVTPNAKVYVEGAWNRVTNKKGNTSLYDHNNNTSDYSKNGAGIENYNFITTAGLKYTF
For the protein B1, the “protease assay (cleavage of substrate T2, relative fluorescence), buffer with 5% fetal bovine serum” value is “detection of the presence of E. coli in the E. coli sample occurred in the presence of FBS” and the “protease assay (cleavage of substrate T2, relative fluorescence), simulated wound fluid buffer with 5% bovine serum albumin” value was “the protease reactivity of the E. coli sample was not affected by the simulated wound fluid buffer”.
